Laboratory results reported in US10160812B2, “Bispecific HER2 antibodies” (MedImmune, LLC, priority 2014, dated 2018).
Values joined by “and” are separate entries in the source; they are usually repeats but may differ in a detail not shown here. Identical values can stand only once.

Experiments:
Assay in all cases: ProteOn SPR binding of 39S to captured chimeric Her2 variants
[1] = target: T1, chimeric human/mouse Her2 variants (Homo sapiens, UniProt P04626, P283L/V272I); conditions: variant KO_250-261
T1 construct: His tag; made in house; host or cells: HEK293F (transient, pEBNA vector; captured from culture supernatant)
Source text: (§1) The domain II of human HER2 was identified as the epitope of 39S by swapping domains between human and mouse Her2 molecules. Mouse Her2 was chosen as the chimeric partner because it is not recognized by 39S, but shares 85% sequence identity with human HER2. Chimeric variants targeting each domain of HER2 were constructed (see method below) as listed in Table 4, including four knock-out (KO, loss-of-function) variants replacing domain I, II, III, or IV of human HER2 with the mouse counterpart, and one knock-in (KI, gain-of-function) variant grafting the domain II of human HER2 into mouse Her2 molecule. The chimeric variant nomenclature denotes types of variants (KO/KI) and the number of domains swapped. The binding profiles of 39S to these variants were characterized using a SPR based instrument ProteOn™ by capturing variants on sensor surfaces using anti-human and mouse Her2 polyclonal antibodies (see method below). The expression of the variants was monitored by anti-His polyclonal antibody using ProteOn™. […] Therefore, the domain II (amino acid 146-310) of human HER2 was identified as the epitope-containing domain of 39S by both loss-of-function and gain-of-function variants.
(§2) We further refined the epitope of 39S and identified the region of amino acid 192-208 in domain II as the critical epitope region. […] Seven knock-out variants were generated by replacing each of the following human HER2 regions with the mouse counterparts, including amino acids 146-208, 159-162, 171-187, 192-208, 250-261, 276-285, and 295-296. In addition, one knock-in variant was constructed by grafting the region of amino acid 192-208 of human HER2 to the mouse molecule. The variant nomenclature denotes types of variants (KO/KI) and the swapped regions with amino acid numbering. All variants had detectable expression levels by anti-His polyclonal antibody (Table 4). […] The binding of 39S was not impacted when substituting any other regions of human HER2 with mouse amino acids (KO_159-162, KO_171-187, KO_250-261, KO_276-285, and KO_295-296). […] Taken together, the region of amino acid 192-208 in domain II of human HER2 was identified as the functional epitope of 39S.
(§3) The variant nomenclature denotes types of variants (KO/KI) and the swapped regions with amino acid numbering. Amino acid positions were denoted basing on the numbering scheme of mature human HER2 sequences without its signal peptide. The expression levels of all variants were monitored by an anti-His polyclonal antibody. The binding profiles of 39S to these variants were characterized using a SPR based instrument ProteOn™ by capturing variants on sensor surfaces using anti-human and mouse Her2 polyclonal antibodies.
(§4) Construction and expression of chimeric human/mouse Her2 variants were constructed as follows. Briefly, DNAs encoding chimeric human/mouse Her2 variants with a His tag were assembled and amplified by overlapping PCR using human and mouse Her2 plasmids as templates (MedImmune). The assembled DNAs were cloned into the mammalian expression vector pEBNA (MedImmune). HEK293F cells were then transiently transfected with the various constructs using 293fectin and standard protocols according to the manufacturer's instructions (Invitrogen).
(§5) The binding characteristics of 39S to chimeric human/mouse variants were studied using a ProteOn™ XPR36 instrument (BioRad). Standard amine coupling was used to immobilize an anti-human or mouse Her2 polyclonal antibody (R&D System) in 10 mM sodium acetate (pH 5.0) to the surface of a GLC biosensor chip at ˜5000 resonance units (RU) for each channel. The chimeric proteins in cell culture supernatant were injected and captured by anti-human or mouse polyclonal antibodies onto the GLC surface with a ˜200RU response. Anti-HER2 mAb 39S was diluted in phosphate-buffered saline (PBS) (pH 7.4) with 0.005% Tween-20 from 10 nM to 0.625 nM (1:2 dilution), and injected at 100 μL/min for 180 sec with a 600-second dissociation time. […]

[2] = target: T2, chimeric human/mouse Her2 variants (Homo sapiens, UniProt P04626, A221T/A298T/D307E/F173L/G201D/G222S/H174R/H193P/H318N/I172V/I184M/L181P/L183D/L317P/M198T/P230R/P283L/R203H/R217G/S196A/S202N/S209P/S214I/T182V/V219I/V272I); conditions: variant KO_II, swapped amino acids 146-310
T2 construct: His tag; made in house; host or cells: HEK293F (transient, pEBNA vector; captured from culture supernatant)
Source text: as §1, §2, §3, §4, §5

[3] = target: T3, chimeric human/mouse Her2 variants (Homo sapiens, UniProt P04626, A221T/F173L/G201D/G222S/H174R/H193P/I172V/I184M/L181P/L183D/M198T/P230R/R203H/R217G/S196A/S202N/S209P/S214I/T182V/V219I); conditions: variant KO_146-208
T3 construct: His tag; made in house; host or cells: HEK293F (transient, pEBNA vector; captured from culture supernatant)
Source text: as §1, §2, §3, §4, §5

[4] = target: T4, chimeric human/mouse Her2 variants (Mus musculus, UniProt P70424, A197S/D184L/D202G/E308D/G218R/H204R/I215S/I220V/I273V/L174F/L284P/M185I/N203S/N319H/P182L/P194H/P210S/P318L/R175H/R231P/S223G/T199M/T222A/T299A/V173I/V183T); conditions: variant KI_II, human amino acids 146-310 grafted into mouse Her2; read-out: The binding affinity of 39S (KD)
T4 construct: His tag; made in house; host or cells: HEK293F (transient, pEBNA vector; captured from culture supernatant)
Source text: as §1, §2, §3, §4, §5

[5] = target: T5, chimeric human/mouse Her2 variants (Homo sapiens, UniProt P04626, H318N/L317P); conditions: variant KO_295-296
T5 construct: His tag; made in house; host or cells: HEK293F (transient, pEBNA vector; captured from culture supernatant)
Source text: as §1, §2, §3, §4, §5

[6] = target: T6, chimeric human/mouse Her2 variants (Homo sapiens, UniProt P04626, I184M/L181P/L183D/T182V); conditions: variant KO_159-162
T6 construct: His tag; made in house; host or cells: HEK293F (transient, pEBNA vector; captured from culture supernatant)
Source text: as §1, §2, §3, §4, §5

[7] = target: T7, chimeric human/mouse Her2 variants (Homo sapiens, UniProt P04626, A298T/D307E); conditions: variant KO_276-285
T7 construct: His tag; made in house; host or cells: HEK293F (transient, pEBNA vector; captured from culture supernatant)
Source text: as §1, §2, §3, §4, §5

[8] = target: T8, chimeric human/mouse Her2 variants (Mus musculus, UniProt P70424, G218R/I215S/I220V/R231P/S223G/T222A); conditions: variant KI_192-208, human amino acids 192-208 grafted into mouse Her2; read-out: The binding affinity of 39S (KD)
T8 construct: His tag; made in house; host or cells: HEK293F (transient, pEBNA vector; captured from culture supernatant)
Source text: as §1, §2, §3, §4, §5

[9] = target: T9, chimeric human/mouse Her2 variants (Homo sapiens, UniProt P04626, G201D/H193P/M198T/R203H/S196A/S202N/S209P); conditions: variant KO_171-187
T9 construct: His tag; made in house; host or cells: HEK293F (transient, pEBNA vector; captured from culture supernatant)
Source text: as §1, §2, §3, §4, §5

B1: 39S: lead optimized monoclonal antibody derived from the 1.39.1 antibody; VH SEQ ID NO:15, VL SEQ ID NO:16 (antibody, V domains shown)
VH: EVQLVESGGGLVKPGGSLRLSCAASGFTFSSYSMSWVRQAPGKGLEWVSSISSSSSYIYYADSVKGRFTISRDNAKNSLYLQMNSLRAEDTAVYYCARGGDAYNYYYFDYWGQGTLVTVSS
VL: DIVMTQTPLSLSVTPGQPASISCKSSQSVFFRSNNKNILAWYLQKPGQPPQLLIYWASSRESGVPDRFSGSGSGTDFTLKISRVEAEDVGVYYCQQYFGSPFTFGPGTKVDIK
B1 was tested, and the “The binding affinity of 39S (KD)” value [1] was “not impacted”, the “The binding affinity of 39S (KD)” value [2] was “did not bind and No” and the “The binding affinity of 39S (KD)” value [3] was “did not bind and No”. The Kd [4] was 0.168 nM and 0.163 nM, the “The binding affinity of 39S (KD)” value [5] was “not impacted” and the “The binding affinity of 39S (KD)” value [6] was “not impacted”. For the same molecule, the “The binding affinity of 39S (KD)” value [7] was “not impacted”, the Kd [8] was 0.072 nM and the “The binding affinity of 39S (KD)” value [9] was “not impacted”.
